From patent CN101233156A (MEDAREX INC, dated 2008)

Target: T1, 人CD 19 (细胞表面上表达: Raji、Daudi、ARH-77细胞, 人CD 19转染的CHO细胞) (human, UniProt P15391 20-556)
T1 construct: CD19 on the surface of B cell tumour lines (endogenous) or of CHO cells transfected with full-length cDNA of the transmembrane form; it is not tied word for word to the cells used; also called CHO-CD 19; CD 19-CHO
T1 sequence: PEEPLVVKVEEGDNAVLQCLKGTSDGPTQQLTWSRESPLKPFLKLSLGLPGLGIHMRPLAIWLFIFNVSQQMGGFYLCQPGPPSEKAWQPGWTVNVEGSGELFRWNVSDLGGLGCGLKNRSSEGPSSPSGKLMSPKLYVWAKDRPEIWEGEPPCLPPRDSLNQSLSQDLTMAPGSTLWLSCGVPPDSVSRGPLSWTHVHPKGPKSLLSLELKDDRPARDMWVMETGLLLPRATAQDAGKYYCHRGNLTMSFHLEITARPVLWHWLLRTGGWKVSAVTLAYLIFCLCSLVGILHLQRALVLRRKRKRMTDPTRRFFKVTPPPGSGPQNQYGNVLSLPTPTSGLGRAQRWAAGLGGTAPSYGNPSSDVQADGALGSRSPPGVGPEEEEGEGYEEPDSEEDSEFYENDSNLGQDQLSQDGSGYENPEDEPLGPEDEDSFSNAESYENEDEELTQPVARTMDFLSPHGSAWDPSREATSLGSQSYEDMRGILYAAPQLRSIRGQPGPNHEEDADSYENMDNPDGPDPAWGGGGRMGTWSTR
Experiment: Scatchard analysis, 125I-labelled antibody on Raji cells

B1: 抗CD 19人单克隆抗体21D4 (antibody, V domains shown)
VH: EVQLVQSGAEVKKPGESLKISCKGSGYSFSSSWIGWVRQMPGKGLEWMGIIYPDDSDTRYSPSFQGQVTISADKSIRTAYLQWSSLKASDTAMYYCARHVTMIWGVIIDFWGQGTLVTVSS
VL: AIQLTQSPSSLSASVGDRVTITCRASQGISSALAWYQQKPGKAPKLLIYDASSLESGVPSRFSGSGSGTDFTLTISSLQPEDFATYYCQQFNSYPYTFGQGTKLEIK
notes: Human monoclonal antibody from KM mouse hybridoma; also called HuMAb 21D4; HuMab 21D4
Kd: ~2.14 nM

B2: 抗CD 19人单克隆抗体47G4 (antibody, V domains shown)
VH: QVQLVQSGAEVKKPGSSVKVSCKDSGGTFSSYAISWVRQAPGQGLEWMGGIIPIFGTTNYAQQFQGRVTITADESTSTAYMELSSLRSEDTAVYYCAREAVAADWLDPWGQGTLVTVSS
VL: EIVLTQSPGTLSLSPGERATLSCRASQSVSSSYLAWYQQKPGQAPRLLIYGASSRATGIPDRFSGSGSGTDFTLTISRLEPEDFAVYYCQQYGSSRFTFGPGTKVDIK
notes: 125I-labelled in the Scatchard assay; also called HuMAb 47G4; CD 19 HuMab 47G4
Kd: ~12 nM
